The target of this test is Keap1 labeled with Cy3 (UniProt Q14145). In words: MST.

These results are taken from publication PMC10748074.

Chain of UniProt Q14145 (Q14145 whole entry): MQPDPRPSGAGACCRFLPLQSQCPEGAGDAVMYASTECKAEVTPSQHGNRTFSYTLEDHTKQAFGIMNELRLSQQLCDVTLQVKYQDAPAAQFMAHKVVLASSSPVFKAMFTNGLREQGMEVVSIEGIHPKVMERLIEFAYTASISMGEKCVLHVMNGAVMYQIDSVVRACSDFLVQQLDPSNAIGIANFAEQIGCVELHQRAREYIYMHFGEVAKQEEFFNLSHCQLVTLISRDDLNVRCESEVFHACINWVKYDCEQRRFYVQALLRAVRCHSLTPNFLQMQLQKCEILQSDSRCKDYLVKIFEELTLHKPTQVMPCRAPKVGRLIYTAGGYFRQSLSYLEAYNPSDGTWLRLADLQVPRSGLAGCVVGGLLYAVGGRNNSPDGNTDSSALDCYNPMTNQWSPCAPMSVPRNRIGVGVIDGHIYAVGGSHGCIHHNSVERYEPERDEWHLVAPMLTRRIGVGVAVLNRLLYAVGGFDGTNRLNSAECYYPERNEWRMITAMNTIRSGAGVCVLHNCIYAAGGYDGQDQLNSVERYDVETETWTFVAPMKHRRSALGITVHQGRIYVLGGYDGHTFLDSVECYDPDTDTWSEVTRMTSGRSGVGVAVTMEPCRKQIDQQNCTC

In turn, “MNT0, control modular nanotransporter lacking the antiKeap1 monobody fragment” had a Kd of 93 nM.
The substance “free translocation domain of diphtheria toxin, DTox (from UniProt P00588 33-567) (domain or fragment)” displayed a Kd of over 1000 nM.
